In patent US11123408B2, “Compositions and methods for treating nonsteroidal anti-inflammatory drug (NSAID) associated coagulopathy, thrombocytopenia, glanzmann's thrombasthenia, and/or thrombosis” (YALE UNIVERSITY, priority 2011, dated 2021):

Legend:
[1] = Ap4A hydrolysis by NPP enzymes (linked malachite green assay, absorbance change at 259 nm, HPLC); format: biochemical
Method: NPP4 nucleotide substrates were identified by directly detecting the free phosphate (Pi) product using malachite green (ADP substrate) or by a linked hydrolysis assay with alkaline phosphatase combined with malachite green (lipid substrates and nucleotide substrates without terminal P1) to measure released Pi. 50 μM substrate P1 equivalents (e.g. 25 μM ADP) were treated with 50 nM NPP4 for 1 hr 37 min (lipids) or 3 hr 15 min (all other substrates). For substrates without terminal phosphates, 10 units of calf intestinal alkaline phosphatase (M0290S, 10,000 units/mL, New England Biolabs, Ipswich, Mass.) was added for a final reaction volume of 50 μL. 100 μL of malachite green (BIOMOL GREEN™, Enzo Life Sciences, Plymouth Meeting, Pa.) was added to quench the reactions. The amount of phosphate released was measured by absorbance at 620 nm by a Biotek Synergy Mx plate reader (Winooski, Vt.) in 96-well plates (3679, Corning Inc., Corning, N.Y.) and compared against a phosphate standard curve.
The kinetics of the steady state Ap3A/Ap4A cleavage by NPP4 was measured from time courses of absorbance change at 259 nm using a UV spectrophotometer with a 0.1 cm optical path length cuvette or a stopped-flow device with a 0.2 cm optical path length cell. The enzymology reactions in 50 mM Tris pH 8.0, 140 mM NaCl, 5 mM KCl, 1 mM MgCl2 and 1 mM CaCl2 were started by addition of 1 μM NPP4 to varying concentrations of Ap3A/Ap4A (up to 800 μM) solution (UV spectrophotometer) or by rapid mixing of NPP4 and Ap3A/Ap4A (stopped-flow). The substrate concentrations higher than 800 μM have absorption too high to be measured by a UV spectrophotometer and stopped-flow, and were therefore measured by HPLC. […] Therefore, the rate of a product production or enzyme turnover measured by the absorption change assay can be calculated by the rate of absorption change
[formula] according to the following formula;
[formula] where Δl is optical path length. The following absorption coefficients were used: Ap3A: 25.75 mM^−1 cm^−1. Ap4A: 25.4 mM^−1 cm^−1. […]
The HPLC protocol used to measure Ap3A/Ap4A cleavage by NPP4 and for product identification is modified from that of Stocchi et al. (1985, Anal Biochem 146:118-24). The reactions containing varying concentrations of Ap3A/Ap4A in the same buffer as in the absorbance change assay were started by addition of 0.2-1 μM NPP4 and quenched at various time points by equal volume of 3 M formic acid, or 0.5 N KOH and re-acidified by glacial acetic acid to pH 6. The quenched reaction solution was diluted systematically and loaded a HPLC system (Waters, Milford Mass.) and substrates and products were monitored by UV absorbance at 254 or 259 nm. […] The products and substrate were quantified according to the integration of their correspondent peaks and the formula: […]

[2] = system: platelets in platelet rich plasma; experiment: Light transmission aggregometry (LTA) in platelet rich plasma; format: cell-based, human
Method: Whole blood from healthy voluntary donors was collected in accordance with an IRB-approved protocol into blue top vacutainer tubes containing 3.2% sodium citrate. Blood was centrifuged at 1000 RPM for 10 minutes at room temperature to collect platelet rich plasma (PRP). PRP in the supernatant was then transferred to fresh tubes, and the remainder of the specimen was centrifuged at 4000 RPM for 10 minutes to obtain platelet poor plasma (PPP). PRP was adjusted to a final platelet count of 250×10^6 platelets/mL with autologous PPP for use in aggregation studies. Potential donors were excluded if there was a history of a bleeding disorder or current anticoagulant use and donors were instructed to avoid NSAIDs for at least 7 days prior to donation. Approval for the human subjects involved in this research was sought and granted by the Committee for the Protection of Human Subjects, Dartmouth-Hitchcock Medical Center, where these studies were conducted in accordance with the Declaration of Helsinki.
Light transmission (i.e., optical) and lumi aggregometry were performed on up to four samples from the same individual simultaneously with a Chrono-Log Model 700 Whole Blood/Optical Lumi Aggregometer (Chrono-Log Corporation, Havertown, Pa.) using procedures provided by the manufacturer that are briefly summarized here.
Platelet aggregation was determined by measuring the change in light transmittance of stirred PRP over time after addition of various agonists. Prior to each experiment the aggregometer was standardized to reflect 100% and 0% light transmittance with PPP and PRP, respectively, from the donor whose platelets were used in each specific experiment. 500 μL PRP was added to cuvettes containing a magnetic stir bar and allowed to pre-warm to 37° C. in the aggregometer wells for 3 minutes prior to initiating aggregation reactions which were then conducted at 37° C. Aggregation reactions were initiated by direct addition of agonists and/or enzymes to warmed, stirred PRP, and were monitored for an increase in light transmittance for 10 minutes. The increase in light transmittance is directly proportional to the amount of aggregation and is amplified and digitized into a computer (HP Compaq, Hewlett-Packard, Palo Alto, Calif.) with the AGGRO/LINK8 for Windows software (Chrono-Log Corporation, Havertown, Pa.) to generate aggregation curves. […] The platelet aggregometry experiments for all concentrations of MRS 2395 (including the 0 μM point) were conducted with the plasma adjusted to a final concentration of 10% DMSO to solubilize the inhibitor.

B1: NPP4: soluble recombinant extracellular domain of human NPP4 (NCBI AAH18054.1, residues 1-407 of SEQ ID NO:1), expressed in insect cells (protein, listed as Homo sapiens)
chain: MKLLVILLFSGLITGFRSDSSSSLPPKLLLVSFDGFRADYLKNYEFPHLQNFIKEGVLVEHVKNVFITKTFPNHYSIVTGLYEESHGIVANSMYDAVTKKHFSDSNDKDPFWWNEAVPIWVTNQLQENRSSAAAMWPGTDVPIHDTISSYFMNYNSSVSFEERLNNITMWLNNSNPPVTFATLYWEEPDASGHKYGPEDKENMSRVLKKIDDLIGDLVQRLKMLGLWENLNVIITSDHGMTQCSQDRLINLDSCIDHSYYTLIDLSPVAAILPKINRTEVYNKLKNCSPHMNVYLKEDIPNRFYYQHNDRIQPIILVADEGWTIVLNESSQKLGDHGYDNSLPSMHPFLAAHGPAFHKGYKHSTINIVDIYPMMCHILGLKPHPNNGTFGHTKCLLVDQWCINLPEA
[1]; linked alkaline phosphatase / malachite green assay
  Ap4A cleavage (qualitative): detected cleavage
[1]; substrate Ap4A
  maximum catalytic turnover rate (kcat) for Ap4A: ~1 s^−l
[1]; substrate Ap4A, steady state
  kcat, Ap4A Hydrolysis by NPP4: 0.78 s^−1NPP4^−1
[1]; substrate Ap4A, steady state, read-out: KM, Ap4A Hydrolysis by NPP4
  Km: 210 µM
[2]; 100 nM NPP4 at 80 μM Ap3A
  maximum aggregation: 80%
[2]; 200 nM NPP4 at 80 μM Ap3A
  maximum aggregation: 90%
[2]; 80 μM Ap3A, enzyme 50-200 nM
  platelet aggregation response of enzyme in the presence of 80 μM Ap3A (qualitative): strong primary and secondary aggregation waves
[2]; agent alone in PRP (Ap3A up to 160 μM; NPP4 100 nM)
  platelet aggregation response, agent alone (qualitative): does not trigger platelet aggregation
